From patent publication US20210388110A1 (published 2021)
Changes are numbered by the printed parent chain.

B1: TR01H018-E22Hh/none-Hi-Kn010G3/L0000-k0 (antibody, human IgG1, kappa, L234A L235A, N297A)
heavy: QVQLVESGGGLVQPGGSLRLSCAASGFTFSNAWMHWVRQAPGKGLEWVAQIKGKSNNYATYYAESVKGRFTISRADSKNSIYLQMNSLKTEDTAVYYCRYVHYSASYGVDIWGQGTTVTVSSASTKGPSVFPLAPSSKSTSGGTAALGCLVKDYFPEPVTVSWNSGALTSGVHTFPAVLQSSGLYSLSSVVTVPSSSLGTQTYICNVNHKPSNTKVDKKVEPKSCDKTHTCPPCPAPEAAGGPSVFLFPPKPKDTLMISRTPEVTCVVVDVSHEDPEVKFNWYVDGVEVHNAKTKPREEQYASTYRVVSVLTVLHQDWLNGKEYKCKVSNKALPAPIEKTISKAKGQPREPQVYTLPPSRCELTKNQVSLSCAVKGFYPSDIAVEWESNGQPENNYKTTPPVLDSDGSFFLVSKLTVDKSRWQQGNVFSCSVMHEALHNHYTQKSLSLSPDYKDDDDK
chain: EPKSSDKTHTCPPCPAPELLGGPSVFLFPPKPKDTLMISRTPEVTCVVVDVSHEDPEVKFNWYVDGVEVHNAKTKPREEQYNSTYRVVSVLTVLHQDWLNGKEYKCKVSNKALPAPIEKTISKAKGQPREPQVCTLPPSRDELTKNQVSLWCLVKGFYPSDIAVEWESNGQPENNYKTTPPVLDSDGSFFLYSKLTVDKSRWQQGNVFSCSVMHEALHNRYTQKSLSLSP
light: DIVMTQSPLSLPVTPGEPASISCRSSQSLVHSNRNTYLHWYQQKPGQAPRLLIYKVSNRFSGVPDRFSGSGSGTDFTLKISRVEAEDVGVYYCGQGTQVPYTFGQGTKLEIKRTVAAPSVFIFPPSDEQLKSGTASVVCLLNNFYPREAKVQWKVDNALQSGNSQESVTEQDSKDSTYSLSSTLTLSKADYEKHKVYACEVTHQGLSSPVTKSFNRGEC
notes: single-arm
B2: TR01H027-E22Hh/none-Hi-Kn010G3/L0000-k0 (antibody, human IgG1, kappa, L234A L235A, N297A)
heavy: B1 heavy with G53S, N56Q, I111A
chain: B1 chain
light: B1 light
notes: single-arm
B3: TR01H033-E22Hh/none-Hi-Kn010G3/L0000-k0 (antibody, human IgG1, kappa, L234A L235A, N297A)
heavy: B1 heavy with G16R, G53S, N56Q, I111Y
chain: B1 chain
light: B1 light
notes: single-arm
B4: TR01H028-E22Hh/none-Hi-Kn010G3/L0000-k0 (antibody, human IgG1, kappa, L234A L235A, N297A)
heavy: B1 heavy with L11V, G53S, N56Q
chain: B1 chain
light: B1 light
notes: single-arm
B5: TR01H038-E22Hh/none-Hi-Kn010G3/L0000-k0 (antibody, human IgG1, kappa, L234A L235A, N297A)
heavy: B1 heavy with G16R, G53D
chain: B1 chain
light: B1 light
notes: single-arm
B6: TR01H040-E22Hh/none-Hi-Kn010G3/L0205-k0 (antibody, human IgG1, kappa, L234A L235A, N297A)
heavy: B1 heavy with G16R, G53D, N56Q, I111A
chain: B1 chain
light: B1 light with L29P, S61W
notes: single-arm
B7: TR01H029-E22Hh/none-Hi-Kn010G3/L0000-k0 (antibody, human IgG1, kappa, L234A L235A, N297A)
heavy: B1 heavy with G16R, A23S
chain: B1 chain
light: B1 light
notes: single-arm
B8: TR01H040-E22Hh/none-Hi-Kn010G3/L0216-k0 (antibody, human IgG1, kappa, L234A L235A, N297A)
heavy: B1 heavy with G16R, G53D, N56Q, I111A
chain: B1 chain
light: B1 light with S28P, S61R
notes: single-arm
B9: TR01H019-E22Hh/none-Hi-Kn010G3/L0000-k0 (antibody, human IgG1, kappa, L234A L235A, N297A)
heavy: B1 heavy with G16R, N56Q
chain: B1 chain
light: B1 light
notes: single-arm
B10: TR01H025-E22Hh/none-Hi-Kn010G3/L0000-k0 (antibody, human IgG1, kappa, L234A L235A, N297A)
heavy: B1 heavy with G16R, G53S, N56Q
chain: B1 chain
light: B1 light
notes: single-arm
B11: TR01H032-E22Hh/none-Hi-Kn010G3/L0000-k0 (antibody, human IgG1, kappa, L234A L235A, N297A)
heavy: B1 heavy with G16R, G53S, N56Q, I111A
chain: B1 chain
light: B1 light
notes: single-arm
B12: TR01H020-E22Hh/none-Hi-Kn010G3/L0000-k0 (antibody, human IgG1, kappa, L234A L235A, N297A)
heavy: B1 heavy with G16R, E64P
chain: B1 chain
light: B1 light
notes: single-arm
B13: TR01H030-E22Hh/none-Hi-Kn010G3/L0000-k0 (antibody, human IgG1, kappa, L234A L235A, N297A)
heavy: B1 heavy with L11V, G16R
chain: B1 chain
light: B1 light
notes: single-arm
B14: TR01H026-E22Hh/none-Hi-Kn010G3/L0000-k0 (antibody, human IgG1, kappa, L234A L235A, N297A)
heavy: B1 heavy with G53S, N56Q
chain: B1 chain
light: B1 light
notes: single-arm
B15: TR01H040-E22Hh/none-Hi-Kn010G3/L0208-k0 (antibody, human IgG1, kappa, L234A L235A, N297A)
heavy: B1 heavy with G16R, G53D, N56Q, I111A
chain: B1 chain
light: B1 light with L29P, S61W, G94Y
notes: single-arm
B16: TR01H040-E22Hh/none-Hi-Kn010G3/L0219-k0 (antibody, human IgG1, kappa, L234A L235A, N297A)
heavy: B1 heavy with G16R, G53D, N56Q, I111A
chain: B1 chain
light: B1 light with L38I, S61R
notes: single-arm
B17: TR01H040-E22Hh/none-Hi-Kn010G3/L0212-k0 (antibody, human IgG1, kappa, L234A L235A, N297A)
heavy: B1 heavy with G16R, G53D, N56Q, I111A
chain: B1 chain
light: B1 light with S25P, L29P, G94Y
notes: single-arm
B18: TR01H040-E22Hh/none-Hi-Kn010G3/L0201-k0 (antibody, human IgG1, kappa, L234A L235A, N297A)
heavy: B1 heavy with G16R, G53D, N56Q, I111A
chain: B1 chain
light: B1 light with S28P, L29P
notes: single-arm
B19: TR01H040-E22Hh/none-Hi-Kn010G3/L0215-k0 (antibody, human IgG1, kappa, L234A L235A, N297A)
heavy: B1 heavy with G16R, G53D, N56Q, I111A
chain: B1 chain
light: B1 light with S28P, L29P, L38I
notes: single-arm
B20: TR01H040-E22Hh/none-Hi-Kn010G3/L0206-k0 (antibody, human IgG1, kappa, L234A L235A, N297A)
heavy: B1 heavy with G16R, G53D, N56Q, I111A
chain: B1 chain
light: B1 light with L29P, G94Y
notes: single-arm
B21: TR01H040-E22Hh/none-Hi-Kn010G3/L0218-k0 (antibody, human IgG1, kappa, L234A L235A, N297A)
heavy: B1 heavy with G16R, G53D, N56Q, I111A
chain: B1 chain
light: B1 light with S61R, G94Y
notes: single-arm
B22: TR01H036-E22Hh/none-Hi-Kn010G3/L0000-k0 (antibody, human IgG1, kappa, L234A L235A, N297A)
heavy: B1 heavy with G16R, I111Y
chain: B1 chain
light: B1 light
notes: single-arm
B23: TR01H040-E22Hh/none-Hi-Kn010G3/L0211-k0 (antibody, human IgG1, kappa, L234A L235A, N297A)
heavy: B1 heavy with G16R, G53D, N56Q, I111A
chain: B1 chain
light: B1 light with S28P, L29P, G94Y
notes: single-arm
B24: TR01H040-E22Hh/none-Hi-Kn010G3/L0210-k0 (antibody, human IgG1, kappa, L234A L235A, N297A)
heavy: B1 heavy with G16R, G53D, N56Q, I111A
chain: B1 chain
light: B1 light with L29P, N35W, G94Y
notes: single-arm
B25: TR01H040-E22Hh/none-Hi-Kn010G3/L0214-k0 (antibody, human IgG1, kappa, L234A L235A, N297A)
heavy: B1 heavy with G16R, G53D, N56Q, I111A
chain: B1 chain
light: B1 light with S28P, L29P, S61R
notes: single-arm
B26: TR01H040-E22Hh/none-Hi-Kn010G3/L0204-k0 (antibody, human IgG1, kappa, L234A L235A, N297A)
heavy: B1 heavy with G16R, G53D, N56Q, I111A
chain: B1 chain
light: B1 light with L29P, S61R
notes: single-arm
B27: TR01H040-E22Hh/none-Hi-Kn010G3/L0200-k0 (antibody, human IgG1, kappa, L234A L235A, N297A)
heavy: B1 heavy with G16R, G53D, N56Q, I111A
chain: B1 chain
light: B1 light with S25P, L29P
notes: single-arm
B28: TR01H037-E22Hh/none-Hi-Kn010G3/L0000-k0 (antibody, human IgG1, kappa, L234A L235A, N297A)
heavy: B1 heavy with G16R, H35P
chain: B1 chain
light: B1 light
notes: single-arm
B29: TR01H040-E22Hh/none-Hi-Kn010G3/L0011-k0 (antibody, human IgG1, kappa, L234A L235A, N297A)
heavy: B1 heavy with G16R, G53D, N56Q, I111A
chain: B1 chain
light: B1 light with S28P
notes: single-arm
B30: TR01H040-E22Hh/none-Hi-Kn010G3/L0207-k0 (antibody, human IgG1, kappa, L234A L235A, N297A)
heavy: B1 heavy with G16R, G53D, N56Q, I111A
chain: B1 chain
light: B1 light with L29P, S61R, G94Y
notes: single-arm
B31: TR01H040-E22Hh/none-Hi-Kn010G3/L0209-k0 (antibody, human IgG1, kappa, L234A L235A, N297A)
heavy: B1 heavy with G16R, G53D, N56Q, I111A
chain: B1 chain
light: B1 light with L29P, L38I, G94Y
notes: single-arm
B32: TR01H040-E22Hh/none-Hi-Kn010G3/L0202-k0 (antibody, human IgG1, kappa, L234A L235A, N297A)
heavy: B1 heavy with G16R, G53D, N56Q, I111A
chain: B1 chain
light: B1 light with L29P, N35W
notes: single-arm
B33: TR01H040-E22Hh/none-Hi-Kn010G3/L0213-k0 (antibody, human IgG1, kappa, L234A L235A, N297A)
heavy: B1 heavy with G16R, G53D, N56Q, I111A
chain: B1 chain
light: B1 light with L29P, L38I, S61R
notes: single-arm
B34: TR01H040-E22Hh/none-Hi-Kn010G3/L0203-k0 (antibody, human IgG1, kappa, L234A L235A, N297A)
heavy: B1 heavy with G16R, G53D, N56Q, I111A
chain: B1 chain
light: B1 light with L29P, L38I
notes: single-arm
B35: TR01H040-E22Hh/none-Hi-Kn010G3/L0217-k0 (antibody, human IgG1, kappa, L234A L235A, N297A)
heavy: B1 heavy with G16R, G53D, N56Q, I111A
chain: B1 chain
light: B1 light with S25P, S61R
notes: single-arm
B36: TR01H039-E22Hh/none-Hi-Kn010G3/L0000-k0 (antibody, human IgG1, kappa, L234A L235A, N297A)
heavy: B1 heavy with G16R, G53D, N56Q
chain: B1 chain
light: B1 light
notes: single-arm

Target: T1, soluble human CD3ε chain (human, UniProt P07766 23-126, limits assumed)
T1 construct: the text says soluble human CD3ε chain; also called human CD3 epsilon chain
T1 sequence (P07766 23-126 limits assumed): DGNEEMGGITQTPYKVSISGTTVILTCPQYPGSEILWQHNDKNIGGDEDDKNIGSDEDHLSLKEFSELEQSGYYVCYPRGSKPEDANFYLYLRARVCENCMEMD
Test: SPR (Biacore)

Row | Binder | Kd
1 | B1 | 69.3 nM
2 | B2 | 69.5 nM
3 | B3 | 48.8 nM
4 | B4 | 48 nM
5 | B5 | 12.4 nM
6 | B6 | 34.2 nM
7 | B7 | 67 nM
8 | B8 | 25.3 nM
9 | B9 | 68.5 nM
10 | B10 | 38.6 nM
11 | B11 | 57.3 nM
12 | B12 | 64.8 nM
13 | B13 | 65.4 nM
14 | B14 | 51.2 nM
15 | B15 | 4.16 nM
16 | B16 | 39.4 nM
17 | B17 | 2.17 nM
18 | B18 | 28.1 nM

Row | Binder | Kd
19 | B19 | 33.7 nM
20 | B20 | 2.9 nM
21 | B21 | 8.2 nM
22 | B22 | 65 nM
23 | B23 | 3.22 nM
24 | B24 | 5.06 nM
25 | B25 | 20.2 nM
26 | B26 | 22.1 nM
27 | B27 | 28.7 nM
28 | B28 | 6.93 nM
29 | B29 | 34.8 nM
30 | B30 | 2.6 nM
31 | B31 | 4.25 nM
32 | B32 | 61.9 nM
33 | B33 | 20.1 nM
34 | B34 | 32.4 nM
35 | B35 | 20.7 nM
36 | B36 | 26.1 nM
